Source: patent publication US20230372448A1, “THERAPEUTIC USE OF LONG-ACTING CONJUGATE OF TRIPLE AGONIST ACTING ON ALL OF GLUCAGON, GLP-1 AND GIP RECEPTORS AGAINST MULTIPLE SCLEROSIS” (HANMI PHARM. CO. ,LTD., priority 2020, published 2023)
Positions of bridges follow the written chain, without caps; N, C: chain ends. Non-standard residues stand in square brackets, D forms with d. No end group written: not given here. *: point of attachment. Acetyl(2-(4-imidazolyl)) = O=C(Cc1c[nH]cn1)*; Aib = CC(C)(N)C(=O)O

T1: human GIP receptor (human, UniProt P48546 22-466)
T1 sequence (looked up): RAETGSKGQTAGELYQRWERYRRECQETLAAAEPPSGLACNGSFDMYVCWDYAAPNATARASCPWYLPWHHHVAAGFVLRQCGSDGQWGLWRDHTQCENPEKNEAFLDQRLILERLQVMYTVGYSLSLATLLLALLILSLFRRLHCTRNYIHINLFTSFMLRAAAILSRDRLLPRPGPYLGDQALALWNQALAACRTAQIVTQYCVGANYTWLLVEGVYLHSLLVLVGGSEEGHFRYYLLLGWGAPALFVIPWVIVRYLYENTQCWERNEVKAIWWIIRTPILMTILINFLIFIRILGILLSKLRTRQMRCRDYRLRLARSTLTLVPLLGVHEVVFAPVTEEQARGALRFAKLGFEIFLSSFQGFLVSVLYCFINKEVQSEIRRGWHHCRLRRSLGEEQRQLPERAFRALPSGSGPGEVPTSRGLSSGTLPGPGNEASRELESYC


How the values were obtained:
Experiment in all cases: cell-based or functional assay
human GLP-1 receptor = human GLP-1 receptor (human, UniProt P43220 24-463)
human GIP receptor = target: T1, human GIP receptor
human GCG receptor = human GCG receptor (human, UniProt P47871 26-477)
Sequence of human GCG receptor (P47871 26-477): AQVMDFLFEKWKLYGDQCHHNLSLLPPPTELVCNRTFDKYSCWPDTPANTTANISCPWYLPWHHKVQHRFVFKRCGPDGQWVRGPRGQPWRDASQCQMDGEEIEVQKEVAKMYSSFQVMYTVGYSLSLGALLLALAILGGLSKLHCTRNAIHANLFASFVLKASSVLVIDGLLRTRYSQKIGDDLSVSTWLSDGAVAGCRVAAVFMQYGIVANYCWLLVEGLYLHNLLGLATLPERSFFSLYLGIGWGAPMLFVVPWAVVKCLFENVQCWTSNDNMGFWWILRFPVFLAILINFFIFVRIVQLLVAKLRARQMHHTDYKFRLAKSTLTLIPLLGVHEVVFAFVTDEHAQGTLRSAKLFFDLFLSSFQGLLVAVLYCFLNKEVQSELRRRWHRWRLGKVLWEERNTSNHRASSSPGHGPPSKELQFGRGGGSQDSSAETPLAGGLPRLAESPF

Binder	In vitro activity (%) compared with native peptide: vs GLP-1 (human GLP-1 receptor)	In vitro activity (%) compared with native peptide: vs GIP (human GIP receptor)	In vitro activity (%) compared with native peptide: vs Glucagon (human GCG receptor)
H[Aib]QGTFTSDVSKYLDGQAAQEFVAWLLAGGGPSSGAPPPSC (not fully specified) [triple agonist of SEQ ID NO: 10]	46%	< 0.1%	< 0.1%
{Acetyl(2-(4-imidazolyl))}-GQGTFTSDLSIQYDSEHQRDFIEWLKDTGPSSGAPPPSHG (not fully specified; also: ring from underlined residues, positions not shown) [triple agonist of SEQ ID NO: 19]	< 0.1%	< 0.1%	< 0.1%
{Acetyl(2-(4-imidazolyl))}-GEGTFTSDLSKYLDSRRQQLFVQWLKAGGPSSGAPPPSHG (not fully specified; also: ring from underlined residues, positions not shown) [triple agonist of SEQ ID NO: 11]	1.4%	< 0.1%	< 0.1%
{Acetyl(2-(4-imidazolyl))}-GQGTFTSDLSKQMDEERAREFIEWLLAQKPSSGAPPPSHG (not fully specified; also: ring from underlined residues, positions not shown) [triple agonist of SEQ ID NO: 17]	0.2%	< 0.1%	< 0.1%
{Acetyl(2-(4-imidazolyl))}-GEGTFISDYSIQLDEIAVQDFVEWLLAQKPSSGAPPPSHG (not fully specified; also: ring from underlined residues, positions not shown) [triple agonist of SEQ ID NO: 13]	< 0.1%	< 0.1%	< 0.1%
Y[Aib]QGTFTSDYSKALDEKAAKDFVNWLLDHHPSSGQPPPSC (bridge 16-20; not fully specified) [triple agonist of SEQ ID NO: 99]	20.9%	57.7%	14.9%
Y[Aib]QGTFTSDYSKALDEKAAKEFVQWLLDQHPSSGQPPPSC (bridge 16-20) [triple agonist of SEQ ID NO: 100]	42.2%	118%	12.7%
{Acetyl(2-(4-imidazolyl))}-GQGTFTSDLSKQMDSEAQQLFIEWLKNGGPSSGAPPPSHG (not fully specified; also: ring from underlined residues, positions not shown) [triple agonist of SEQ ID NO: 16]	2.1%	< 0.1%	< 0.1%
Y[Aib]QGTFTSDYSKYLDEKRAKEFVQWLLDHCPSSGQPPPS (bridge 16-20; not fully specified) [triple agonist of SEQ ID NO: 96]	34.4%	5.2%	195%
Y[Aib]QGTFTSDYSKCLDEKRAKEFVQWLLDHHPSSGQPPPS (bridge 16-20; not fully specified) [triple agonist of SEQ ID NO: 22]	20.1%	59.7%	140%
{Acetyl(2-(4-imidazolyl))}-GQGTFTSDLSIQYEEEAQQDFVEWLKDTGPSSGAPPPSHG (not fully specified; also: ring from underlined residues, positions not shown) [triple agonist of SEQ ID NO: 20]	< 0.1%	< 0.1%	< 0.1%
Y[Aib]QGTFTSDYSKALDEKAAKDFVNWLLDQHPSSGQPPPSC (bridge 16-20) [triple agonist of SEQ ID NO: 102]	23.3%	58%	29.5%
Y[Aib]QGTFTSDYSKYLDEKRAKEFVQWLLCHHPSSGQPPPS (bridge 16-20; not fully specified) [triple agonist of SEQ ID NO: 95]	2.1%	< 0.1%	0.4%
Y[Aib]QGTFTSDYSKYLDECRAKEFVQWLLDHHPSSGQPPPS (bridge 16-20; not fully specified) [triple agonist of SEQ ID NO: 21]	17.8%	22.7%	267%
{Acetyl(2-(4-imidazolyl))}-GQGTFTSDYSIQLDEIAVRDFVEWLKNGGPSSGAPPPSHG (not fully specified; also: ring from underlined residues, positions not shown) [triple agonist of SEQ ID NO: 14]	28%	< 0.1%	< 0.1%
H[Aib]QGTFTSDVSSYLDGQAQKEFIAWLVKGC (not fully specified) [triple agonist of SEQ ID NO: 2]	5.9%	< 0.1%	< 0.1%
Y[Aib]QGTFTSDYSKALDEKAAKEFVNWLLDQHPSSGQPPPSC (bridge 16-20) [triple agonist of SEQ ID NO: 101]	23.2%	40.1%	13.9%
Y[Aib]QGTFTSDYSKYLDEKRAKEFVQWLLDCHPSSGQPPPS (bridge 16-20; not fully specified) [triple agonist of SEQ ID NO: 97]	10.5%	2.6%	62.8%
{Acetyl(2-(4-imidazolyl))}-GEGTFISDLSKYMDEQAVQLFVEWLMAGGPSSGAPPPSHG (not fully specified; also: ring from underlined residues, positions not shown) [triple agonist of SEQ ID NO: 12]	0.4%	< 0.1%	< 0.1%
{Acetyl(2-(4-imidazolyl))}-GQGTFTSDLSKQMDSERAREFIEWLKNTGPSSGAPPPSHG (not fully specified; also: ring from underlined residues, positions not shown) [triple agonist of SEQ ID NO: 18]	< 0.1%	< 0.1%	< 0.1%
{Acetyl(2-(4-imidazolyl))}-[Aib]QGTFTSDYSIAMDEIHQKDFVNWLLNTKC (bridge 15-19; not fully specified) [triple agonist of SEQ ID NO: 94]	0.5%	< 0.1%	< 0.1%
Y[Aib]QGTFTSDYSKALDEKAAKEFVNWLLDHHPSSGQPPPSC (bridge 16-20; not fully specified) [triple agonist of SEQ ID NO: 98]	28.1%	47.1%	8.2%
